From US20150322137A1 (EVEC, published 2015)

Experiments:
[1] = molecular target: T1, F protein of human metapneumovirus strain JPS03-180 (type A1), on infectious virus (human metapneumovirus, strain JPS03-180 …); assay: cell-based or functional assay
[2] = molecular target: T2, F protein of human metapneumovirus strain JPS05-21 (type B2), on infectious virus (human metapneumovirus, strain JPS05-21 …); assay: cell-based or functional assay
[3] = molecular target: T3, F protein of human metapneumovirus strain JPS02-76 (type B1), on infectious virus (human metapneumovirus, strain JPS02-76 …, UniProt Q6WB98 19-539); assay: cell-based or functional assay
[4] = molecular target: FP-TM(-)-His, His-Tag-added hMPV (JPS02-76) FP lacking the transmembrane region (amino acid residues 491 to … (human metapneumovirus, strain JPS02-76 …, UniProt Q6WB98 19-490)); assay: SPR, Biacore T-200; antibody captured by anti-human IgG, FP-TM(-)-His as analyte
[5] = molecular target: T1, F protein of human metapneumovirus …; assay: cell-based or functional assay; remark: listed apart in the source
[6] = molecular target: T2, F protein of human metapneumovirus …; assay: cell-based or functional assay; remark: listed apart in the source
[7] = molecular target: T4, F protein of human metapneumovirus strain JPS03-178 (type A2), on infectious virus (human metapneumovirus, strain JPS03-178 …); assay: cell-based or functional assay
[8] = molecular target: T3, F protein of human metapneumovirus …; assay: cell-based or functional assay; remark: listed apart in the source
[9] = molecular target: T3, F protein of human metapneumovirus …; assay: cell-based or functional assay; remark: listed apart in the source
[10] = molecular target: T1, F protein of human metapneumovirus …; assay: cell-based or functional assay; remark: listed apart in the source
[11] = molecular target: T2, F protein of human metapneumovirus …; assay: cell-based or functional assay; remark: listed apart in the source
[12] = molecular target: T4, F protein of human metapneumovirus …; assay: cell-based or functional assay; remark: listed apart in the source
[13] = molecular target: T1, F protein of human metapneumovirus …; assay: cell-based or functional assay; remark: listed apart in the source
[14] = molecular target: T2, F protein of human metapneumovirus …; assay: cell-based or functional assay; remark: listed apart in the source
[15] = molecular target: T4, F protein of human metapneumovirus …; assay: cell-based or functional assay; remark: listed apart in the source
[16] = molecular target: T3, F protein of human metapneumovirus …; assay: cell-based or functional assay; remark: listed apart in the source

Binder	IC50, neutralizing activity (hMPV infection of LLC-MK2 cells) [1] [µg/mL]	IC50, neutralizing activity (hMPV infection of LLC-MK2 cells) [2] [µg/mL]	IC50, neutralizing activity (hMPV infection of LLC-MK2 cells) [3] [µg/mL]	Kd [4] [nM]	koff [4] [s⁻¹]	kon [4] [M⁻¹ s⁻¹]	IC60, neutralizing activity (hMPV infection of LLC-MK2 cells; GraphPad Prism 6) [5] [µg/mL]	IC60, neutralizing activity (hMPV infection of LLC-MK2 cells; GraphPad Prism 6) [6] [µg/mL]	IC60, neutralizing activity (hMPV infection of LLC-MK2 cells; GraphPad Prism 6) [7] [µg/mL]	IC60, neutralizing activity (hMPV infection of LLC-MK2 cells; GraphPad Prism 6) [8] [µg/mL]	IC50, cell-to-cell spread inhibitory activity (LLC-MK2 cells stably expressing TMPRSS2) [9] [µg/mL]	IC90, cell-to-cell spread inhibitory activity (LLC-MK2 cells stably expressing TMPRSS2) [9] [µg/mL]	IC50, neutralizing activity (hMPV infection of LLC-MK2 cells; GraphPad Prism 6) [10] [µg/mL]	IC50, neutralizing activity (hMPV infection of LLC-MK2 cells; GraphPad Prism 6) [11] [µg/mL]	IC50, neutralizing activity (hMPV infection of LLC-MK2 cells; GraphPad Prism 6) [12] [µg/mL]	IC90, neutralizing activity (hMPV infection of LLC-MK2 cells; GraphPad Prism 6) [13] [µg/mL]	IC90, neutralizing activity (hMPV infection of LLC-MK2 cells; GraphPad Prism 6) [14] [µg/mL]	IC90, neutralizing activity (hMPV infection of LLC-MK2 cells; GraphPad Prism 6) [15] [µg/mL]	IC90, neutralizing activity (hMPV infection of LLC-MK2 cells; GraphPad Prism 6) [16] [µg/mL]
EV046116 (antibody, human IgG1, kappa, V domains shown) VH: QVQLQESGPGLVKPSETLSLTCTVSGGSISRDYWSFIRQPAGKGLEWIGRIYHNGDTNYNPSLKSRVTMSQDTSKNQFFLRLRHVTAADTAVYYCAREGSAGTFGQADWGQGTLVIVYS VL: EIVMTQSPATLSVSPGERATLSCRASQSISNNLAWYQQKPGQAPRLLIYGASTRATGIPARFSGGGSGTEFTLTISSLQSEDFAVYYCQQYENWLLYTFGQGTKLEIKR	0.31	0.25	0.25	1.62	0.000408	252000	0.428	0.341	0.247	0.497	0.054	0.132	0.351	0.279	0.19	1.03	0.828	0.8	3
EV046141 (antibody, human IgG1, lambda, V domains shown) VH: QVQLVQSGAEVKKPGASVKVSCKASGYTFADYYIHWLRQAPGQGLEWLGRINPSNSRTTYPQKFQGRVTVTRDTSTSTVYMELSSLRSADTAVYYCARDGLRMGYYYMDVWGKGTTVTVSS VL: QSVLTQPPSVSGAPGQRVTISCTGSSSNIGAGYDVHWYQQIPGTAPKLLIFGNYNRPSGVPDRFSASKSGTSASLAITGLQAEDEAHYYCQSYDTTLDGAVFGGGTKLTVLG	0.2	0.44	0.74	–	–	–	0.276	0.571	2.18	0.883	0.0363	0.171	0.213	0.524	2.11	0.863	0.836	2.52	2.18
EV046142 (antibody, human IgG1, lambda, V domains shown) VH: QVQLVQSGAEVKKPGSSVRVSCKASGGTFSTYGINWVRQARGQGLEWMGTVIPTFEKTYYAQGFQGRVTIAADGSKNTVYMELRRLTSEDSAIYFCTRFFTPYCSGGSCYLDLWGPGTLVTVSS VL: QSVLTQPPSVSGAPGQSVTISCAGSSSNIGAGYDVHWYQHLPGTAPRLLIYSNTNRPSGVPDRFSGSKSGASASLAITGLQAEDEADYYCQSYDSGVVFGGGTKLTVLR	0.22	0.22	0.42	–	–	–	0.243	0.366	0.0971	0.641	0.0123	0.0664	0.212	0.273	0.0614	0.443	1.35	0.738	1.57
EV046143 (antibody, human IgG1, kappa, V domains shown) VH: QVQLVQSGAEVQKPGSSVKVSCKTSGDTFNNYALSWVRQAPGQGPEWMGRIIPLVEMANYAQKFQGRVTITADKSTTTIYMELSSLRSEDTAMYYCARDGYQGGFPYFFDSWGQGTLVTVSS VL: EVVLTQSPGTLSLSPGERATLSCRASQSVSNYLAWYQQKPGQAPRLLISAASSRATGIPDRFGGSGSGADFTLTISRLEPEDFAVYYCQQYGFSPGTFGQGTKVEIRR	0.13	0.27	0.46	–	–	–	0.186	0.363	0.0266	0.627	0.0572	0.886	0.157	0.272	0.0198	0.402	1.29	0.0967	0.735
EV046147 (antibody, human IgG1, lambda, V domains shown) VH: QVQLVQSGAEVKKPGASVKVSCKASGYTFSVYGISWVRQAPGHGLEWMGWISAYNGDRGYAQKVQGRITMTTDTSASTAYMELRSLTSDDTAVYYCATTSSGVPGIYWGQGSLVTVSS VL: SYALVQPPSVSVSPGQTARITCFGPALPKKYAYWYQHKSGQAPMLVIYEDTKRPSGIPQRFSGSTSGATATLTIRGAQVEDEADYYCYSTDSSGHERVFGGGTKLTVLG	0.31	0.27	0.39	–	–	–	0.406	0.298	2.06	0.514	0.114	0.506	0.326	0.253	1.98	1.07	0.612	2.41	1.18
EV046150 (antibody, human IgG1, kappa, V domains shown) VH: RVQLVQSGAEVKKPGSSVRVSCKASGGTFSNYSISWVRQVPGQGLEWMGRIIPILPLSSYPQQFQGRVAITADKSSTTAYMELSSLRIEDTAIYYCARDALRPEGGYYYYYFDVWGTGTTVTVSS VL: EIELTQSPGTLSLSPGERATLSCRANQIIGDTSLAWYQQKPGQAPRLLIFGASSRATGIPDRFSGSGFGSDFTLTITSLEPEDFAVYYCQQYGSSPTFGQGTKVEIKR	0.049	0.18	0.3	–	–	–	0.0823	0.229	0.0373	0.36	0.0166	0.065	0.0618	0.202	0.0298	0.292	0.404	0.101	0.663
